{"source": "patent US9889184B2", "about": "(priority 2008, dated 2018)", "molecules": {"B1": {"name": "NaCys2: cystatin from Nicotiana alata, bacterially expressed (SEQ ID NO:4) (protein)", "chain": "MANLGGIREAGGSENSLEINDLARFAVDGHNKKQNALLEFRKVVNVKEQVVAGTMYYITLEATEGGKKKAYEAKVWVKPWQNFKQLEDFKLIGDAASA", "modifications": "Nicotiana alata (NaCys2)"}}, "format_in_all_cases": "cell-based", "key": {"Fusarium graminearum [1]": {"tested_on": "Fusarium graminearum", "conditions": "concentrations up to 18.5 uM in the absence of NaD1"}, "Fusarium graminearum [2]": {"tested_on": "Fusarium graminearum", "conditions": "F. graminearum"}, "[3]": {"tested_on": "Fusarium oxysporum f. sp. vasinfectum (Fov)", "experiment": "Growth of Fov with NaD1 and proteinase inhibitors (Example 6)", "conditions": "40 h, FIG. 6", "description": "The inhibitory effects of defensin (NaD1) and proteinase inhibitors on the growth of Fusarium oxysporum f. sp. vasinfectum (Fov) (Australian isolate VCG01111 isolated from cotton and provided by Farming Systems Institute, DPI, Queensland, Australia) were measured essentially as described by Broekaert et al, supra 1990. Spores were isolated from sporulating cultures growing in ½ strength potato dextrose broth (PDB). The Fov culture was grown in ½ PDB for 1-2 weeks at room temperature, before spores were separated from hyphal matter by filtration through sterile tissue paper. The concentration of spores in the filtrate was measured using a hemocytometer. NaD1 and the proteinase inhibitors were prepared as described in Example 4. The conditions used for the fungal growth assay were the same as those described in Example 4. After 40h at 25° C. fungal growth was assessed by measuring optical density at 595 nm (A595)."}, "[4]": {"tested_on": "Colletotrichum graminicola", "conditions": "C. graminicola, 40 h, FIG. 7"}}, "data": [{"molecule": "B1", "values": [{"measurement": "effect on hyphal growth", "setting": "Fusarium graminearum [1]", "value": "no effect on hyphal growth"}, {"measurement": "synergy with the petunia defensin PhD1A on growth inhibition", "setting": "Fusarium graminearum [2]", "value": "synergistic effect"}, {"measurement": "synergy with the tomato defensin Tomdef2 on growth inhibition", "setting": "Fusarium graminearum [2]", "value": "synergistic effect"}, {"measurement": "synergy with NaD1 on growth inhibition", "setting": "[3]", "value": "Less, but significant synergy"}, {"measurement": "synergy with NaD1 on growth inhibition", "setting": "[4]", "value": "synergistic effect"}]}]}
